B1: 1A9 antibody (human CD33^PAN antibody clone, hybridoma-derived) (antibody, V domains shown)
VH: EVQLVESGGGLVQPGGSLRLSCAASGFTFSIYDMHWVRQATGKGLEWVSAIGTAGDTYYAGSVKGRFTISRENAKNSLYLQMNSLRAGDTAVYYCAREYSGYYFDYWGQGTLVTVSS
VL: AIQMTQSPSSLSASVGDRVTITCRASQDIRNDLGWYQQKPGKAPKILIYGASSLQSGVPSRFSGSGSGTDFTFTISSLQPEDFATYYCLQEYNYPCTFGQGTKLEIK
B2: 1B9 antibody (human CD33^PAN antibody clone, hybridoma-derived) (antibody, V domains shown)
VH: QVQLVESGGGVVQPGRSLRLSCAASGFIFSSYDIHWVRQAPGKGLEWVAVIWYDGSHNYYSDSVKGRFTISRDNSKNTLYLQMNSLRAEDTAVYYCARDYSGSYFDYWGQGTLVTVSS
VL: B1 VL with Q37L, K39R, I46L, G50A, F73L, E91D, N93S, C96R, K103T, L104V
B3: 1H10 antibody (human CD33^PAN antibody clone, hybridoma-derived) (antibody, V domains shown)
VH: QVQLVQSGAEVKKPGASVKVSCKGSGYIFTSYDMHWVRQAPGQGLEWMGIIDPSGGSTSYAQKFQGRVTMTRDTSMSTVYMELSSLRSEDTAVYYCTRDYSWSYFDYWGQGTLVTVSS
VL: B1 VL with D28G, N31I, D32Y, I46L, G50A, A51T, F73L, E91D, C96W, L104V
B4: 1E6 antibody (human CD33^PAN antibody clone, hybridoma-derived) (antibody, V domains shown)
VH: B2 VH with I28T, F105Y
VL: B1 VL with D28G, I46L, G50A, S53N, F73L, E91D, N93S, C96R, L104V
B5: 1D2 antibody (human CD33^PAN antibody clone, hybridoma-derived) (antibody, V domains shown)
VH: B2 VH with I28T, H57Q, N58K, S61A, F105Y
VL: AIQMTQSPSSLSASVGDRVTITCRASQGIRNDLGWYQQKPGKAPELLIYATSSLQSGVPSRFSGSGSGTDFTLIISSLQPEDFATYYCLQDYSYPRTFGQGTKVEIK
B6: 2D3 antibody (human CD33V-set antibody clone, hybridoma-derived) (antibody, V domains shown)
VH: EVQLLESGGGLVQPGGSLSLSCAASGFTFSIYAMSWVRQAPGKGLEWVSAISDSGGTTYYADSVKGRFTISRDNSKNMLYLEMNSLRAEDTAIYYCAKRTRYFNGMDVWGQGTTVTVSS
VL: EIVMTQSPATLSLSPGERATLSCRASQSGSSSFLSWYQQKPGQAPRLLIYGASTRATGIPARFSGSGSGTDFTLTISSLQPEDFAVYYCQQDYNLPFTFGPGTKVDIK
B7: 1H8 antibody (human CD33V-set antibody clone, hybridoma-derived) (antibody, V domains shown)
VH: QVQLVESGGGVVQPGGSLRLSCAASGFTFGSYGMHWVRQAPGKGLEWVAVIWYDGSNEYYADSVKGRFTVSRDNSKHTLYLQMNRLRAEDTAVYYCARDLDYDSSGGDYWGQGILVLVSS
VL: EIVLTQSPDFQSVTPKEKVTITCRASQNIGGNLHWYQQKPDQSPKLLIRYATQPFSGVPSRFGGSGSGTDFTLTINSLEAEDAATYYCHQSSSLPLTFGGGTKVEIK

Where a chain is given by its changes, count along the chain named.

One assay deals with T1, human full-length CD33 (CD33^FL) (UniProt P20138 18-364). Description: SPR (Carterra); hybridoma supernatant.
T1 sequence (P20138 18-364): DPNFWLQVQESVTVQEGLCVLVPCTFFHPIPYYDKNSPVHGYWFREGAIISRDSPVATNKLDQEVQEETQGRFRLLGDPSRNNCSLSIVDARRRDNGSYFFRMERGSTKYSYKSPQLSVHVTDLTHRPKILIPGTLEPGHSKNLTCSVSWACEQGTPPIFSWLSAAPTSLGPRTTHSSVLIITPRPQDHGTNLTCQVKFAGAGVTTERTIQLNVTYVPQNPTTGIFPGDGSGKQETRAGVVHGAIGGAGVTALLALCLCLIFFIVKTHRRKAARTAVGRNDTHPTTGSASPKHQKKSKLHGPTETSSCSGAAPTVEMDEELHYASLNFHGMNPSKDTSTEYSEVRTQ
The term Kd denotes the concentration at which binding is half-saturated. As for B1, the Kd stood at 67 nM.
Still for that read-out and setting: next, B2: 77 nM.
Still for that read-out and setting: in the case of B3 it was 112 nM; in that of B4, 69 nM.
Turning to B5, binding was characterised by a dissociation constant (Kd) of 116 nM.

Another assay has as its target T1, human full-length CD33 (CD33^FL). Put plainly: SPR (Biacore T100). For orientation: In SPR one partner is held on a chip, and binding of the other changes the refractive index at the surface.
Regarding B3, the Kd turned out to be 3.71 nM.
B6 registered a Kd of 4.89 nM.

Another assay shares this target. Description: SPR (Carterra); 4 µg/mL.
For B7, the Kd is 40 nM.
The same measure, in the same setting: next, B1: 130 nM.
Regarding B3, the Kd stood at 42 nM.
Molecule B4 showed a Kd of 78 nM.
For the molecule B6, the Kd was 27 nM.

For a further assay the target is unchanged. Description: SPR (Carterra); 1 µg/mL.
B7 registered a Kd of 24 nM.
Molecule B1 gave a Kd of 36 nM.
Regarding B3, the Kd is 13 nM.
B4 yielded a Kd of 67 nM.
On the same count and under the same terms, next, B6: 18 nM.

Values taken from US20260265404A1 (published 2026).
